Columns and labels:
DMZ explants = experiment: Wnt cDNA overexpression in DMZ explants, Nkx2.5 and TnIc by in situ hybridization; assay type: cell-based, Xenopus; conditions: plasmid cDNA injection into dorsal blastomeres; for Incidence of explants expressing Nkx2.5: stage 23; for Incidence of explants expressing TnIc: stage 30
Text: If the normal function of Wnt antagonism in vivo is to induce cardiogenic mesoderm, then overexpression of Wnt proteins should block cardiogenesis in dorsal mesoderm. Four Wnt genes are known to be expressed during gastrulation: Wnt3A, Wnt5A, Wnt8, and Wnt11. Expression of Wnt8 is normally excluded from the organizer region, whereas Wnt 3A and Wnt11 are expressed dorsally and Wnt5A is found diffusely throughout the ectoderm (Christian and Moon 1993; Ku and Melton 1993; Moon et al. 1993; Du et al. 1995; McGrew et al. 1997). We injected Wnt cDNAs into the two dorsal blastomeres of a four-cell embryo and dissected DMZ explants encompassing the organizer and heart primordia at stage 10 (FIG. 10A). Plasmid injections were performed to avoid perturbation of Nieuwkoop center activity that can occur on expression of certain Wnts before the midblastula transition (Smith and Harland 1991; Sokol et al. 1991). Explants were cultured to either stage 23 or stage 30, at which time they were examined for the expression of Nkx2.5 or TnIc.
(§1) Marginal zone explants were dissected at stage 10. Those explants to be examined by RT-PCR for expression of heart field marker- and heart muscle-specific genes were cultured until sibling embryos were stage 30. In situ hybridization was performed on explants cultured to the equivalent of stage 23 or stage 30. Explants to be scored for formation of beating hearts were maintained until the equivalent of stage 41.
(§2) mRNA was transcribed from pSP35-chd, pSP64-ngn, pCS2-DKK1, pCS2-Crescent, pCS2-GSK3, pCS2-WIF, pCS2-dnXwnt8, pCS2-szl, and pXT7-FrzA using the SP6 and T7 mMessage mMachine kits (Ambion). All cDNAs used encode Xenopus proteins except those for Wnt1 and crescent, which encode chick isoforms. The Xenopus form of crescent was identified while this manuscript was in preparation (Pfeffer et al. 1997; Pera and De Robertis 2000; Shibata et al. 2000) and functions identically to the chick isoform in our assays. Xenopus and chick Crescent share 88% amino acid positional identity within the cysteine-rich domain. Injections were performed in 3% Ficoll in 1×MMR. Embryos were injected equatorially into the two ventral or two dorsal blastomeres at the four-cell stage to target expression to the ventral or dorsal marginal zone. The amount of mRNA injected is given in the text. For plasmid cDNA injections, 75 pg of pCS2-Xwnt3A, pCS2-Xwnt5A, and pCSKA-Xwnt8 and 100 pg of pCS2-cWnt11 supercoiled plasmid constructs were injected.
In situ hybridization was performed according to the protocol of Harland (1991). Digoxygenin-labeled probes were transcribed from the following linearized plasmids: pGEM-XNkx2.5 (XbaI, T7 polymerase) and pBS-TnIc (NotI, T7).

mWnt-3a = mWnt-3a (UniProt P27467); experiment: cell-based or functional assay
stage 7 chick embryos = experiment: Cell pellet implantation into stage 7 chick embryos in New culture (heart looping, DiI tracing, in situ hybridization); assay type: in vivo
[1] = tested on: ventral marginal zone (VMZ) explants; experiment: VMZ explant assay: mRNA injection, cardiac-specific gene expression and beating; assay type: cell-based, Xenopus laevis
Experimental: In a modification of this assay (FIG. 6A), we targeted mRNAs encoding Wnt and BMP antagonists to VMZ tissue by microinjection into the equatorial region of both ventral blastomeres of four-cell stage embryos. VMZ explants were isolated at stage 10, cultured, and assayed at stage 30 by RT-PCR for cardiac-specific gene expression.
Embryos were fertilized in vitro, dejellied in 2% cysteine-HCl (pH 7.8), and maintained in 0.1×MMR. Explant dissections were performed in 0.75×MMR using an eyelash knife. Embryos were staged according to Nieuwkoop and Faber (1994).
as §1, §2
RT-PCR was performed as described in Schneider and Mercola (1999). Twenty-five cycles were performed at an annealing temperature of 55° C., unless otherwise noted. Expression of EF1α was used as a positive control for the reverse transcriptase reaction. The following additional primers were used: XNkx2.5+, […] (SEQ ID NO: 7); XNkx2.5−, […] (SEQ ID NO: 8); M. actin+, […] (SEQ ID NO: 9); M. actin−, […] (SEQ ID NO: 10) (22 cycles); TnIc+, […] (SEQ ID NO: 11); TnIc−, […] (SEQ ID NO: 12); MHCα+, […] GTTCCG (SEQ ID NO: 13); MHCα−, […] (SEQ ID NO: 14); Tbx5+, […] (SEQ ID NO: 15); Tbx5−, […] (SEQ ID NO: 16) (27 cycles); XNkx2.10+, […] (SEQ ID NO: 17); and XNkx2.10−, […] (SEQ ID NO: 18) (59° C., 28 cycles).
A secreted version of the C-terminal fragment was made by fusing the secretory region of human Dkk1 to the C-terminal region cysteine rich region, as described above. This protein is referred to as “C1.” Briefly, the HindIII-Asp718 C-terminal fragment of human Dkk1 (SEQ ID NO: 1) was ligated to the sequence encoding the secretory signal of Dkk1 and cloned into a vector permitting in vitro transcription. As a control, full length Dkk1 was used. RNA was prepared in vitro from the vector as described above. The RNA encoded a polypeptide comprising amino acids 158-266 of SEQ ID NO: 2. The RNA was then injected into noncardiogenic frog embryonic mesoderm, as described above and in Schneider and Mercola (2001) Genes & Dev. 15:304.

APMEE explants = experiment: APMEE explant culture, cardiac gene expression by RT-PCR; assay type: cell-based, chick; conditions: noggin administration to APMEE explants
[2] = tested on: murine embryonic stem (ES) cells; experiment: Cardiac differentiation of ES cells; assay type: cell-based
Experimental: Full length human Dkk1 (SEQ ID NO: 2) was expressed in host cells and incubated with murine embryonic stem (ES) cells. ES cells were lightly trypsinized, re-plated on petri plastic and cultured for 4 days. During this time, the cells cluster and the mesodermal marker brachyury becomes expressed. Cells were then trypsinized lightly and transferred to gelatin-coated plates with or without recombinant Dkk1 and cultured at 37° C. Cardiomyocyte differentiation of ES cells in the absence of Dkk1 occurs at 13-14 days. ES cells incubated with Dkk1 differentiated into cardiomyocytes at 8-9 days (see FIG. 21).
Cells were grown on gelatin-coated plates without LIF for 2d, then allowed to aggregate on petri dish plastic for 2d, aggregates were then dispersed by mild trypsinization and plated onto gelatin-coated plates with rDkk1- or rC1-conditioned medium or control conditioned medium lacking rDkk for duration of experiment. Presence of beating foci was scored on days 8-14. Instances of beating foci presented as “beating”. Precocious beating sometimes occurred at day 8.

mWnt-3a, sequence (P27467 19-352 limits assumed): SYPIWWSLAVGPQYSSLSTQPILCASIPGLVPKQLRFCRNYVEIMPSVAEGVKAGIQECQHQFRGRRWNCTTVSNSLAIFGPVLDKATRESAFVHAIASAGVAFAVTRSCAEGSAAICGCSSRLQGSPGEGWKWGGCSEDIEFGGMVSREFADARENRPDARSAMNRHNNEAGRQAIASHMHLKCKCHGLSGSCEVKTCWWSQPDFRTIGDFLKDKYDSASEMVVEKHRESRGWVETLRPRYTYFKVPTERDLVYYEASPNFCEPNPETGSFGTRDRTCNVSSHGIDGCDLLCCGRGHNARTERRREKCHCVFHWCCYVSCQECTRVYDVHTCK

Molecule: Wnt3A
- Incidence of explants expressing Nkx2.5 (DMZ explants): 45.6%
- Incidence of explants expressing TnIc (DMZ explants): 24.2%

Molecule: chick Crescent
- Wnt-induced expression of siamois in Xenopus animal caps (RT-PCR) (mWnt-3a): 3 fold

B1: BMP-4: BMP-4 expressed by implanted 293 cell pellets (protein, UniProt P12644 293-408, looked up)
Bone morphogenetic protein 4: SPKHHSQRARKKNKNCRRHSLYVDFSDVGWNDWIVAPPGYQAFYCHGDCPFPLADHLNSTNHAIVQTLVNSVNSSIPKACCVPTELSAISMLYLDEYDKVVLKNYQEMVVEGCGCR
- Embryos with reversed heart looping (stage 7 chick embryos; 293 cell pellets in left anterior paraxial mesoderm, stage 7, n=25): 20%
- vMHC expression (stage 7 chick embryos; cell pellets in presumptive anterior paraxial mesoderm, in situ hybridization): failed to affect subsequent vMHC expression

B2: Wnt5A: expressed from injected pCS2-Xwnt5A plasmid (protein, UniProt P31286 41-380, looked up)
Protein Wnt-5a: VVESSSWWSLGMNPVQMPEVYIIGAQPLCSQLSGLSQGQKKLCQLYQDHMQFIGDGAKTGIKECQYQFRHRRWNCSTVDNTSVFGRVMQIGSRETAFTYAISAAGVVNAVSRACREGELSTCGCSRAARPKDLPRDWLWGGCGDNLDYGYRFAKEFVDAREREKIHQKGSYESSRIMMNLHNNEAGRRAVSTLADVACKCHGVSGSCSLKTCWLQLADFRKVGDHLKEKYDSAGAMKLNTRGKLVQVNNKFNSPTMNDLVYIDPSPDYCVHNESTGSLGTQGRLCNKTSEGMDGCELMCCGRGYDQFKTVQTERCHCKFHWCCYVKCKKCTEVVDQFACK
- Incidence of explants expressing Nkx2.5 (DMZ explants): 97.5%
- Incidence of explants expressing TnIc (DMZ explants): 85.9%

B3: Noggin: BMP antagonist; noggin-conditioned medium from CHO cells or injected noggin mRNA (protein, UniProt P49011 20-222, looked up)
Noggin: RIDQGGCQHYLHIRPAPSENLPLVDLIEHPDPIYDPKEKDLNETLLRTLMVGHFDPNFMATILPEERLGVEDLGELDLLLRQKPSGAMPAEIKGLEFYEGLQSKKHRLSKKLRRKLQMWLWSQTFCPVLYTWNDLGTRFWPRYVKVGSCYSKRSCSVPEGMVCKAAKSMHLTILRWRCQRRVQQKCAWITIQYPVISECKCSC
- mRNA dose inducing muscle actin ([1]; VMZ explants): ≥ 5 pg
- mRNA dose at which explants were unable to survive ([1]; extreme morphogenetic movements of VMZ explants): > 50 pg
- Heart-specific gene expression (TnIc, MHCα) ([1]; mRNA injected ventrally at four-cell stage, VMZ explants, RT-PCR stage 30): did not induce specific markers of cardiogenesis
- APMEE explants in which cardiogenesis was blocked (number of explants) (APMEE explants): 10 out of 14

B4: Dkk1: Full length human Dkk1 (SEQ ID NO: 2), recombinant, expressed in host cells (protein, UniProt O94907 1-266, looked up)
chain: MMALGAAGATRVFVAMVAAALGGHPLLGVSATLNSVLNSNAIKNLPPPLGGAAGHPGSAVSAAPGILYPGGNKYQTIDNYQPYPCAEDEECGTDEYCASPTRGGDAGVQICLACRKRRKRCMRHAMCCPGNYCKNGICVSSDQNHFRGEIEETITESFGNDHSTLDGYSRRTTLSSKMYHTKGQEGSVCLRSSDCASGLCCARHFWSKICKPVLKEGQVCTKHRRKGSHGLEIFQRCYCGEGLSCRIQKDHHQASNSSRLHTCQRH
modifications: full-length
- myosin light chain (MLC2a) mRNA ([2]; PCR, relative to ES cells not incubated with Dkk1): elevated myosin light chain (MLC2a) mRNA
- Beating, Nkx2.5 and contractile protein expression ([2]; by comparison with ES cells not incubated with Dkk1): early beating, an increased number of beating foci, an increased Nkx2.5 expression and increased contractile protein expression
- Time to cardiomyocyte differentiation of ES cells ([2]; recombinant Dkk1, 13-14 days in the absence of Dkk1): 8 to 9 days

B5: Wnt11: expressed from injected pCS2-cWnt11 plasmid (protein, UniProt P49339 25-354, looked up)
Protein Wnt-11: IKWIALSKTPSSLALNQTQHCKQLEGLVVSQVQLCRSNLELMQTIIQAAREVIKTCRKTFSDMRWNCSSIELAPNYLLDLERGTRESAFVYALSAAAISHTIARACTTGDLPGCSCGPIPGETPGPGYRWGGCADNLNYGLIMGSKFSDAPMKMKKSGSQANKLMHLHNSEVGRQVLKASLEMKCKCHGVSGSCSIKTCWKGLQELRDIALDLKNKYLSATKVVHRPMGTRKYLVPKDIDIRPVKETELIYLQSSPDFCMKNEKVGSHGTQDRQCNKTSNGSDSCDLMCCGRGYNPYMDKVVERCHCKYHWCCYVTCKKCERTVERYVCK
- Incidence of explants expressing Nkx2.5 (DMZ explants): 94.1%
- Incidence of explants expressing TnIc (DMZ explants): 83.1%

B6: Wnt8: expressed from injected pCSKA-Xwnt8 plasmid (protein)
chain: AWSVNNFLMTGPKAYLTYSASVAVGAQNGIEECKYQFAWERWNCPESTLQLATHNGLRSATRETSFVHAISSAGVMYTLTRNCSMGDFDNCGCDDSRNGRIGGRGWVWGGCSDNAEFGERISKLFVDGLETGQDARALMNLHNNEAGRLAVKETMKRTCKCHGISGSCSIQTCWLQLAEFRDIGNHLKIKHDQALKLEMDKRKMRSGNSADNRGAIADAFSSVAGSELIFLEDSPDYCLKNISLGLQGTEGRECLQSGKNLSQWERRSCKRLCTDCGLRVEEKKTEIISSCNCKFHWCCTVKCEQCKQVVIKHFCARRERDSNMLNTKRKNRGHRR
- Incidence of explants expressing Nkx2.5 (DMZ explants): 19.9%
- Incidence of explants expressing TnIc (DMZ explants): 41.1%
